From US20050053592

T1: GST-Sav^362-607, Q9VCR6
T1 chain: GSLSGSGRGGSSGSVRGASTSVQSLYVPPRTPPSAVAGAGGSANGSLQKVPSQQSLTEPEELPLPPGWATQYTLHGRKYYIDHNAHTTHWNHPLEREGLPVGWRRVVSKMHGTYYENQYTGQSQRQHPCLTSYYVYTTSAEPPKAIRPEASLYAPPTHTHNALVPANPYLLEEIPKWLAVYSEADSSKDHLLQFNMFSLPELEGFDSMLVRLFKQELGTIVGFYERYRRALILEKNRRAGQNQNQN

T2: GST-Wts^68-414, Q9VA38
T2 chain: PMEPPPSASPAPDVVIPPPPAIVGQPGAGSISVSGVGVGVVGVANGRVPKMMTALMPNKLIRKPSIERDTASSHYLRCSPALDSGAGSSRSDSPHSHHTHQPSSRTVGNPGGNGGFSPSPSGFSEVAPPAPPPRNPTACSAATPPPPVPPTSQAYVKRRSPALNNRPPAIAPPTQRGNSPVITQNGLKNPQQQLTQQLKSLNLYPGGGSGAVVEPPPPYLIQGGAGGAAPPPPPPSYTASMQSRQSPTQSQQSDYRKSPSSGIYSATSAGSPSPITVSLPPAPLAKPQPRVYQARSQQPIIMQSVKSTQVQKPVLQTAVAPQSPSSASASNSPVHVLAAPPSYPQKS

T3: endogenous Sav (Salvador), Q9VCR6
T3 chain: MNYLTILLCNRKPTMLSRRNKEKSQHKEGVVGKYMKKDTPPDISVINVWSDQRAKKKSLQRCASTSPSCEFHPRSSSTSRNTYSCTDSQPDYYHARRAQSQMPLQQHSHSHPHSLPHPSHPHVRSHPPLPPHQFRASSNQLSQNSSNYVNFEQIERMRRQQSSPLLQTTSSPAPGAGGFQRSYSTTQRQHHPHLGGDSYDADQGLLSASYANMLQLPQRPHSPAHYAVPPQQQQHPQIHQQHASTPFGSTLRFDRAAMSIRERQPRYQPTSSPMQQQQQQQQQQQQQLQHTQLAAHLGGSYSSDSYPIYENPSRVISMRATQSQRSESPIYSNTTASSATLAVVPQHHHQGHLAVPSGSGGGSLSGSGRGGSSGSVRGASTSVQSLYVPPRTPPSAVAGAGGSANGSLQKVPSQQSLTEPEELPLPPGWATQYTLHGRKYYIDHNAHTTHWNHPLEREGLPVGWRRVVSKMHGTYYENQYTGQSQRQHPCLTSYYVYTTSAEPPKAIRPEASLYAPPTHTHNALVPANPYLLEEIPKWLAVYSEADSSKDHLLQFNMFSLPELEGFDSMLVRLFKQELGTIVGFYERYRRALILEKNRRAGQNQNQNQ


Legend:
GST-Sav^362-607, Q9VCR6 = target: T1, GST-Sav^362-607, Q9VCR6
GST-Wts^68-414, Q9VA38 = target: T2, GST-Wts^68-414, Q9VA38
[1] = target: GST-Tsc1 (control GST fusion protein)
[2] = target: T3, endogenous Sav (Salvador), Q9VCR6

Protein | in vitro kinase assay (32P phosphorylation of the GST substrate) (GST-Sav^362-607, Q9VCR6) | in vitro kinase assay (32P phosphorylation of the GST substrate) (GST-Wts^68-414, Q9VA38) | in vitro kinase assay (32P phosphorylation of the GST substrate) [1] | increase in wing size (MS1096 Gal4 driver) [2]
Myc-tagged Hpo (protein) MEQKLISEEDLNESEPEVTSVVDMKSPNISSSCSFFKLKKLSEESLLQPPEKVFDIMYKLGEGSYGSVYKAVHKESSSIVAIKLVPVESDLHEIIKEISIMQQCDSPYVVRYYGSYFKQYDLWICMEYCGAGSVSDIMRLRKKTLTEDEIATILSDTLQGLVYLHLRRKIHRDIKAANILLNTEGYAKLADFGVAGQLTDTMAKRNTVIGTPFWMAPEVIEEIGYDCVADIWSLGITALEMAEGKPPYGEIHPMRAIFMIPQKPPPSFREPDRWSTEFIDFVSKCLVKEPDDRATATELLEHEFIRNAKHRSILKPMLEETCAIREQQRANRSFGGVLAASQAKSLATQENGMQQHITDNAFMEDPGTLVPEKFGEYQQSSASDATMIAHAEQGVDEGTLGPGGLRNLSKAAAPAAASSAASPLDMPAVDSGTMVELESNLGTMVINSDSDDSTTAKNNDDQKPRNRYRPQFLEHFDRKNAGDGRGDEKPIATEYSPAAAEQQQQQQQQQQQQQQDEQHLASGANDLNNWEHNMEMQFQQISAINQYGLQQHQQQQQVLMAYPLMNEQLIALNNQPNLLLSNAAPMGQQGIPAAAPAQPPPAYQNQHMHTQSHAYVEGEFEFLKFLTFDDLNQRLCNIDHEMELEIEQLNKKYNAKRQPIVDAMNAKRKRQQNINNNLIKI | myc-tagged Hpo protein specifically phosphorylated a GST fusion protein containing the Hpo-binding region of Sav | a GST fusion protein containing this region of Wts was phosphorylated by Hpo | no signals were detected using a control substrate | –
kinase dead Hpo^K71R mutant (UAS-hpo^K71R) (protein) MSEPEVTSVVDMKSPNISSSCSFFKLKKLSEESLLQPPEKVFDIMYKLGEGSYGSVYKAVHKESSSIVAIRLVPVESDLHEIIKEISIMQQCDSPYVVRYYGSYFKQYDLWICMEYCGAGSVSDIMRLRKKTLTEDEIATILSDTLQGLVYLHLRRKIHRDIKAANILLNTEGYAKLADFGVAGQLTDTMAKRNTVIGTPFWMAPEVIEEIGYDCVADIWSLGITALEMAEGKPPYGEIHPMRAIFMIPQKPPPSFREPDRWSTEFIDFVSKCLVKEPDDRATATELLEHEFIRNAKHRSILKPMLEETCAIREQQRANRSFGGVLAASQAKSLATQENGMQQHITDNAFMEDPGTLVPEKFGEYQQSSASDATMIAHAEQGVDEGTLGPGGLRNLSKAAAPAAASSAASPLDMPAVDSGTMVELESNLGTMVINSDSDDSTTAKNNDDQKPRNRYRPQFLEHFDRKNAGDGRGDEKPIATEYSPAAAEQQQQQQQQQQQQQQDEQHLASGANDLNNWEHNMEMQFQQISAINQYGLQQHQQQQQVLMAYPLMNEQLIALNNQPNLLLSNAAPMGQQGIPAAAPAQPPPAYQNQHMHTQSHAYVEGEFEFLKFLTFDDLNQRLCNIDHEMELEIEQLNKKYNAKRQPIVDAMNAKRKRQQNINNNLIKI | – | – | – | expression of the kinase dead Hpo^K71R mutant results in 35% increase in wing size
